Experimental findings from paper PMC5862935, “YcfDRM is a thermophilic oxygen-dependent ribosomal protein uL16 oxygenase” (Extremophiles, 2018) are described below.

Substrate in data set [1]: O=C(O)CCC(=O)C(=O)O
In words: MALDI-MS peptide hydroxylation assay, steady-state kinetics. The class given is biochemical, Rhodothermus marinus. Conditions: co-substrates uL16RM peptide fragment and O2, Fe(II), ascorbate, 50 mM HEPES pH 7.5, 37 °C.

Substrate in data set [2]: O=C(O)CCC(=O)C(=O)O
The description is as above. The data set is classed as biochemical, Escherichia coli. Conditions: co-substrates uL16 peptide fragment and O2; Fe(II), ascorbate; temperature and pH for this row not explicitly stated in main text.

B1: ycfDRM (Rhodothermus marinus DSM 4252) (protein)
chain: MQLPETILGGLAPEEFLANYWQKRPLLIRQALPGFRSPITPEELAGLACEEGVTARLILEKGGAYPWEVRYGPFEPEDFVALPPTHWTLLVQEVDRLVPEVAALLETVRFVPNWRLDDIMVSYAPEGGTVGAHIDNYDVFLVQAWGRRRWQINHRPVEREELVPGLEVRLLAHFEPDAEWILEPGDVLYLPPRIPHYGVALEDCMTFSIGFRAPDQAELAEAMPRMAAWLDGGRRYADPDLTPADEPGEITPEALDQIQALLRALIDDRERLARWFGCIITEPRRGLPPEPPGRPLSAKQLHRRLQQGATLRRNAIPELAYVRHADGSATLFASGEAYELSPELADVAPLLTGRRPLTAETLRPWLERDDFLELLQTLIHSGILSLIPARKR
notes: pET28a NdeI/SacI, expressed in E. coli BL21(DE3); HisTrap and Superdex 75 purified
B1: the Km (as a rule, the concentration of substrate that gives half-maximal velocity) in data set [1] amounted to 71.1 ± 12.2 µM.

B2: ycfDEC (Escherichia coli K-12) (protein)
chain: MEYQLTLNWPDFLERHWQKRPVVLKRGFNNFIDPISPDELAGLAMESEVDSRLVSHQDGKWQVSHGPFESYDHLGETNWSLLVQAVNHWHEPTAALMRPFRELPDWRIDDLMISFSVPGGGVGPHLDQYDVFIIQGTGRRRWRVGEKLQMKQHCPHPDLLQVDPFEAIIDEELEPGDILYIPPGFPHEGYALENAMNYSVGFRAPNTRELISGFADYVLQRELGGNYYSDPDVPPRAHPADVLPQEMDKLREMMLELINQPEHFKQWFGEFISQSRHELDIAPPEPPYQPDEIYDALKQGEVLVRLGGLRVLRIGDDVYANGEKIDSPHRPALDALASNIALTAENFGDALEDPSFLAMLAALVNSGYWFFEG
notes: purified E. coli YcfD; construct not described in main text
Consider B2, for which the Km in data set [2] was 8.6 ± 3.4 µM.
